The text below walks through data of doi:10.1101/2021.07.22.453419 (2021).

This test concerns the target T1, Papain (E.C.3.4.22.2, from papaya latex) (papaya, UniProt P00784 134-345).
T1 chain: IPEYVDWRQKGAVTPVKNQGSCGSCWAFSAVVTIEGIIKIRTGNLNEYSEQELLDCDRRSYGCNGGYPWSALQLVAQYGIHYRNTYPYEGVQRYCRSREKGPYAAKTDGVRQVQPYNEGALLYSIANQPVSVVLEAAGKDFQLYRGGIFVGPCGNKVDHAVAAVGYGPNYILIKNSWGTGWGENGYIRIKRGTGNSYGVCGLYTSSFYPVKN

B1: tomato cystatin SlCYS8 (natural protein)
chain: NPGGITNVPFPNLPQFKDLARFAVQDYNKKENAHLEFVENLNVKEQVVAGIIYYITLVATDAGKKKIYETKILVKGWENFKEVQEFKLVGDATK
In general, Ki refers to a measure of affinity in units of concentration, obtained from inhibition or displacement. The molecule B1 returned a Ki of 14.7 nM.
